From patent publication US20170253633A1

Biological target: HLA-A*02:01 (human)
Test: UV-ligand exchange + anti-b2m ELISA; ++++ = peptide exchange yield >75%

KLLETKWTL (modifications not checked) […] was tested, and the peptide exchange yield was greater than 75%.
